The nanobody polyreactivity screen of Harvey et al. (2022)

Experiment: yeast display, Sf9 membrane polyspecificity reagent, FACS + sequencing; frameworks hold sequencing errors
Procedure, shortened: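 Genes from sorted yeast were amplified by colony PCR, read by MiSeq 2 × 250 sequencing and filtered on CDR length. These cells carried a synthetic nanobody library in Saccharomyces cerevisiae BJ5465 and were sorted by FACS into low and high (top ~1%) gates on anti-HA and streptavidin fluorescence. Polyreactivity is labelled according to the gate of origin.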

Sequence	polyreactivity (PSR sort gate)
QVQLVESGGGLVQAGGSLRISCAASGRTFYGYTMGWDRQAPGKERELVAAISRNGASTFYADSVKGRFTISRDNAKNTVYLQMNSLKPEDTAVYYCNARSWRHTDTSFEYWGQGTQVTVSS	high polyreactivity
QVQLVESGGGLVQAGGSLRLSCAASGYTFAGYAMGWYRQAPGKERELVAAISRNGGTTYYADSVKGRFTISRDNAKNTVYLQMNSLKPEDTADYYCNKRGWYSVYRRDYWGQGTQVTVSS	high polyreactivity
QVQLVESGGGLVQAGGSLRLSCAASGIIFLRNTMGWYRQAPGKERELVASISRRGGSTYYADSVKGRFTISRDNAKNTVYLQMNSLKPEDTAVYYCNKRSLEKGDYWGQGTQVTVTS	high polyreactivity
QVQLVQSGGGLVQAGGSLRLSCAASGRTFGRYAMGWYRQAPGKERELVAAINRGGSTKYADSVQGRFTISRDNAKNTVYLQMNSLKPEDTAVYYCAKDRHPALLYDYWGQGTEVTVSS	low polyreactivity
QFQLVESGGGLVQAGGSLRLSCAASGSIFDYYDLGWSRKAPGKERELGAAINWSGGITYYADSVKGRFTISRDNAKNTVYLQMNSLKPEDTGVYYCAADWYQWVYSSSITSFDYWGQGTQVTVSS	low polyreactivity
QDQLVESGGGLVQAGGSLRLSCAASGRTLYLYAMGWYRQAPGKERELVAGISWSGTSTYYADSVKGRFTISRYNAKNTVYLQMNSLKPEDTAVYYCAADSYPAYLGFVGFDYWGQGTQVTVSS	low polyreactivity
QVQLVESGGGLVQAGGSLRLSCAASGFIFKFNAMGWYRQAPGKERELVAAINYSAGSTYYADSVKGRFTISRDNAKNTVYLKMNSLKPEDTAVYYCNALYTYGWYSDDYWGQGTQVTVSS	high polyreactivity
QVQLVESGGGLVQAGGSLRLSCAASGRTFPLYAMGWYIQAPGKERELVAAITRSGGSTYYADSVKGRFTISRDNAKNTVYLQMNSLKPEDTAVYYCNARKSKDRPTGYAFNYWGQGTQVTVSS	high polyreactivity
QVQLVESGGGLVQAGGSLRLSCAAPGSTFVYYAMGWFRQAPGKEGELVAAISRSGGHTYYADSVKGRFTISRDKAKKTVYLQMNSLKPEETAVYYCAARSYGVQYYYWGQRTQVTVSS	high polyreactivity
QVQLVESAAGLVQAGGSLRLSCAASGFIFHCNAMGWSRQAPGKERELVAAISDTADITHYADSVKGRFTISRDNAKNTVYLQMNSLKPEDTAVYFCNAGSGVQVVWYKPYREYEYWGQGTQVTVSS	low polyreactivity
QVQLVESGGRLVQAGGSLRLSCAASGLIFAWYAMGWYRQAPGKQRELVATISWNGDRTYYADSVKVRFTISRDNAKNTVYLQMNSVKPVDSAVYYCAARFGSGFNYWGQGNQVTVSS	high polyreactivity
QVQLVESGGGLVQAGGSLRLSCAASGSTFWDYAMGWYRQAPGKERELVAAISSGGSTNYADSVKGRFTISRDNAKNTVYLQMNSLKPEDTAVYYCAVGYGGYYYWGQGTQVTVSS	high polyreactivity
QVQLVESGGGLVQAGGSLRLSCAASGFSFDFYTMGWYRQAPGKERELVAAITWSGDSTYYADSVKGRFTISRDNAKNTVDLQMNSLKPEDTAVYYCAVARVSQDGYRRRVTTWHDDYWGQGTQVTVSS	low polyreactivity
QVQLVESGGGLVQAGGSLRLSCAASGRIFVVYAMGWYRQAPGTETELVANITISGGRTYYADSVKGRFTISRDNAKNTVYVQMNSLKPEDTAVYYCAATSGALYYGYEYWGQGTQVTVSS	low polyreactivity
QVQLVESGGGLGQAGGSLRLSCAASGRIFRYNAMGWYRQAPGKERELVAAITSGTGTNYADSVKGRFTISRDNAKNTVYLQMNSLKPEDTAVYYCNKVRKSYRYDYWGQGTQVTVSS	low polyreactivity
QVQLVESGGGLVQAGGSLRLSCAASGGIFNYYAMGWYRQAPGKDRELVAAISASGGSTYYADSVKGRFTISRDYAKNTVYLQMNSLKPEDTAVYYCASGLPYGYGYDYWGQGTQVTVSS	low polyreactivity
QVQLVESGGGLVQAGGSLRLSCAASGLIFTYNAMGWYRQAPGKERELVASISWGGGSTYYADSVKGRFTISRDNAKHTVYLQMHSLKPEDTAVYYCNAKFKTVHTYGDTIFDRYDYWGQGTQVTVSS	low polyreactivity
QVQLVESGGGLVQAGGSLRLSCAASGYTFPSNAMGWYRQAPGKERDWVAAISSGGRTNYADSVKGRFTISRDNAKNTVYLQMNSLKPEDTAVYYCNADGGPGYPRAYDYWGQGTQVTVSS	low polyreactivity
QVQLVESGGGLVQAGGSLRLSCAASGSNFQVNAMGWYRQAPGKERELVASIDSSGGSTYYADSVKGRFTISRDNAKNTVYLQMNSLKPEDTAVFYCAAEYHHYYYYWGEYWGQGTQVTVSS	low polyreactivity
QVQLVESGGGLVQAGGSLRLICAASGSIFDVNAMGWYRQAPWKERELVAAISDSGGSTYYADSVKGRFTISRDNAKITVYLQMNSLKPEDTAVYYCNAVWSWYNYDDFDYWGQGTQVTVSS	low polyreactivity
QVQLVESGGGLVQAGGSLRLSCAASGRTFRPNAMGWYRQAPGKERELVAAISRRGGSTNYADSVKGRFTISRDNAKNTVYLQMNSLKPEDTAVYYCNSRGRRGYDYWGQGTQVTVSS	high polyreactivity
